Results as given in PMC9259572.

Biological target: full-length epidermal growth factor receptor (EGFR) with a SNAP tag at the C-terminal position, embedded in a lipid bilayer nanodisc (UniProt P00533)

smFRET donor fluorescence lifetime of WT EGFR in nanodiscs (both bilayers) with 1 μM epigen; peak of the distribution: 1.5 ns
B1: Human epigen (ligand)
chain: AAVTVTPPITAQQGNWTVNKTEADNIEGPIALKFSHLCLEDHNSYCINGACAFHHELEKAICRCFTGYTGERCEHLTLTSYAVDSYEKYIAIGIGVGLLLSGFLVIFYCYIRKRCLKLKSPYNVCSGERRPL
